A short description of the data set: yeast display, Sf9 membrane polyspecificity reagent, FACS + sequencing; frameworks hold sequencing errors. In outline:
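Polyreactivity labels are assigned by the sorting gate from which each nanobody was recovered. The gates were low and high (top ~1%), set on anti-HA fluorescence for expression and streptavidin fluorescence for reagent binding. Before sorting, galactose-induced (36–48 hours) yeast display cells were stained for 1 hour at 4 °C with 10% biotinylated, detergent-solubilized Sf9 membrane reagent.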
Regarding “QVQLVESGGGLVQAGGSLRLSCAASGRIFGVNAMGWYRQAPGKERELVAAISVSGDSTYYADSVKGRFTISRDNAKNTVYLQMNSLKPEDTAVYYCNAGYTFVPADLTDEYYWGQGTQVTVSS”, the “polyreactivity (PSR sort gate)” value was “low polyreactivity”.
On to “QVQLVESGGGLVQAGGSLRLSCAASGSTFDYNAMGWYRQAPGKEREFVAAISFSGSSTYYADSVKGRFTISRDNAKNTVYLQMNSLKPEDTAVYYCAKKVFASYRGYGYWGQGTQVTVSS”, for which the “polyreactivity (PSR sort gate)” value is on record as “high polyreactivity”.
As to “QVQLVESGGGLVQAGGSLRLSCAASGYIFPYNAMGWYRQAPGKERELVATITWTGGSTYYADSVKGRFTISRDNAKNSVYLQMNSLKPEDTAVYYCAADLSIRYDHEYGYWGKGTQVTVSS”, the “polyreactivity (PSR sort gate)” value was “low polyreactivity”.
Under “QVQLVESVGGLVQAGGSLRLSCAASGSIFTWYAMGWYRQAPRKERELVAAITRGGSTYADSVKGRFTISRDNAKNTVYLQMNSLKPEDTAVYYCNAVYGVYDFNYWGQGTQVTVSS” stands “low polyreactivity”; under “QVQHVESGGGLVQAGGSLRLSCAASGRIFSTNPMGWSRQAPGKERELVAAITTSGGITYYADSVKGRFTISRDNAKNTVYLQMNSLKPEDTGVYYCNTGYYGRLRDDYWGQGTQVTVSS”, “high polyreactivity”.
Under “QVQLVESGGGLVQAGGSLRLSCAASGFIFRYYAMGWYRQAPGKERELVAAISSSGGSTRYADSVKGRFTISRDNAKNTVYLQMNSLKPEDTAVYYCAARRWRGRYWGDYWGQGTQVTVSS” stands “high polyreactivity”.
Under “QVQLVESGGGLVQAGASLRLSCAASGSIFGGYAMGWYRQAPGKERELVAAISRSGRTNYADSVKGRFTISRDNAKNTVYLQMNSLKPEDTAVYYCAVDKRYGRVVGRDYDYWGQGTQVTVSS” stands “high polyreactivity”; under “QVQLVESGGGLVQAGGSLRLSCAASGSTFSSNAMGWYRQAPGKERELVAAIDRGGSTYYADSVKGRFTISRDNAKNTVYLQMNSLKPEDNAVYYCNAERETYDYWGQGTQVTVSS”, “low polyreactivity”.
“QVQLVESGGGLLQAGGSLRLSCADSGYTFRAYALGWYRQAPGKERELVAAISRGGSTNYADSVKGRFTISRDNAKNTVYLQMYSLKPEDTAVYYCNTAYIVWYSSSYGAYYSGAFDYWGQGTLVTVSS”: the “polyreactivity (PSR sort gate)” value is given as “high polyreactivity”.
Under “QVQLVESGGGLVQAGGSLRLSCAASGFIFDTYAMGWYRQAHGKERELVAAIRWSGGRTYYGDSVKGRFTISRDNAKNTVYLQMNSMKPEDTAVYYCNVVVRYPYAYDYWGQGTQVTVSS” stands “high polyreactivity”.
As to “QVQLVESGGGLVQAGGSLRLSCAASGSTFPSYAMGWYRQAPGKERELVAAINSGGGTNYADSVKGRFTISRDNAKNTVYLQMNSLKPEDTAVYYCAKSRYDYTKTEGGYWGQGSQVTVSS”, the “polyreactivity (PSR sort gate)” value is on record as “low polyreactivity”.
As to “QVQLVESGGGLVQAGGSLRLSCAASGFTFTDYAMGWYRRAPGKESELVAAISSGGSTNYADSVKGRFTISRDNAKNTVYLQMNSLKPEDTAVYYCAAYYVYRAPVRYEYWGQGTQVTVSS”, the “polyreactivity (PSR sort gate)” value was “high polyreactivity”.
With “QVQLVESGGGLVQAGGSLRLSCAASGSIFSGYTMGWYRQAPGKERELVAAISSDGSTTYADSVKGRFTISRDNAKNTVYLQMNSLNPEDTADYYCAAYPYWEGSYGGYDYWGQGTEVTVSS”, the “polyreactivity (PSR sort gate)” value was “low polyreactivity”.
With “QVQLVESGGGLVQAGGSLRLSCAASGSIFNRNAMGWYRQAPGKERELVAAITRRGGSTYYADSVKGRFTISRDNAKNTVYLQMNSLKPEDTAVYYCAAATRKTEYDYWGQGTQVTVSS”, the “polyreactivity (PSR sort gate)” value is listed as “low polyreactivity”.
On to “QVQLVESGGGLVQAGGILRLSCAASGSIIHFYAKGGYREAPGKEWELVAAITSGTSTYYADSVKGRFTISRDNAKNTVYLQMNSLKPDDTAVYYCAAEASHSYYNAYPSYCGSDYWGQGTQVTVSS”, for which the “polyreactivity (PSR sort gate)” value was “low polyreactivity”.
With “QVQLVESGGGLVQAGGSLRLSCAASGRIFTFYAMGWYRQAPGKERELVAAISSGGSTYYADSVKGRFTISRDNAKNTVYLQMHSLKPEDTAVYYCAAEPVWYADYDYWGQGTQVTVSS”, the “polyreactivity (PSR sort gate)” value was “low polyreactivity”.

The values above are taken from the nanobody polyreactivity screen of Harvey et al. (2022).
